The text below walks through data of patent US20090215666A1 (ONCOTHERAPY SCIENCE, published 2009).

The target in the test is T1, HA-tagged PPP3CA (calcineurin A subunit, PP2B) (UniProt Q08209 1-521, limits assumed).
T1 construct: Exogenously expressed in COS7 cells and immunoprecipitated with anti-HA antibody; not shown: HA tag
The test can be described thus: co-immunoprecipitation from co-transfected COS7 cells (anti-HA IP, anti-Flag blot).

B1: Flag-tagged ΔPDIIIT-C1958 (other, not shown: small tags and cut ends)
chain: MGLKMSCLKGFQMCVSSSSSSHDEAPVLNDKHLDVPPTPTGMMLPRDLGSTVWLDETGSCPDDGEIDPEA
notes: also called ΔPDIIIT mutant
In the case of B1, the binding result is “no binding”.
